Source: the supplement of paper PMC10567573

B1: RAB40A (parent)
chain: NWLGRPSKVLSLQDLCCRTIVSCT

Variants of: B1
Assay: protein stability index of a GFP-peptide fusion (GPS, HEK-293T) (PSI 1-6); higher = more stable
Settings: c terminus: a fixed tail appended
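Note: lentivirally expressed fusions sorted by FACS into six bins by GFP to DsRed ratio, PSI derived from sequencing read proportions per bin multiplied by bin number.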

Compared with NWIGRPSKVLSLQDLCCRTIVSCT [L3I], NWLGRASKVLSLQDLCCRTIVSCT [P6A] is lower in protein stability index: 2.36 for the first, 1.79 for the second.

First: NWLGRPSKVLSLQDLCCRTIVSYT [C23Y]
Second: NWVGRPSKVLSLQDLCCRTIVSCT [L3V]
The protein stability index of the first is higher: 2.35 for the first, 2.26 for the second.

Compared with NWLGRPSKVLSLQHLCCRTIVSCT [D14H], NWLGRPSKVLLLQDLCCRTIVSCT [S11L] is lower in protein stability index: 2.13 for the first, 1.86 for the second.

Going from NWLGYPSKVLSLQDLCCRTIVSCT [R5Y] to NWLGRPSKVLSLQDLCCRTITSCT [V21T], the protein stability index rises from 2.06 to 2.58.

First: NWLGRPSKVLSLQDLNCRTIVSCT [C16N]
Second: NWLGRPSKVLNLQDLCCRTIVSCT [S11N]
The protein stability index of the first is lower: 1.61 for the first, 2.22 for the second.

Going from CWLGRPSKVLSLQDLCCRTIVSCT [N1C] to NWLGRPSKRLSLQDLCCRTIVSCT [V9R], the protein stability index falls from 2.02 to 1.85.

Compared with NWLGRPSKVLSLQDLCCRTIMSCT [V21M], NWLGRPSKVLSLGDLCCRTIVSCT [Q13G] is lower in protein stability index: 2.66 for the first, 2.21 for the second.

First: NWLGRPSKVLSLADLCCRTIVSCT [Q13A]
Second: PWLGRPSKVLSLQDLCCRTIVSCT [N1P]
The protein stability index of the first is higher: 2.86 for the first, 2.35 for the second.

First: NWLGRPSKVLDLQDLCCRTIVSCT [S11D]
Second: NWLGRPSKVLSLQDLCCRTIVSCM [T24M]
The protein stability index of the first is lower: 1.9 for the first, 2.27 for the second.

Compared with NWLGRPSKVLSLQDLCTRTIVSCT [C17T], NWLGRPSKVLSLQDLCCRTIVWCT [S22W] is lower in protein stability index: 3.23 for the first, 2.04 for the second.

Compared with NWLGRPSKVESLQDLCCRTIVSCT [L10E], NWLGRPSKVRSLQDLCCRTIVSCT [L10R] is higher in protein stability index: 2.15 for the first, 2.6 for the second.

First: NWLGRFSKVLSLQDLCCRTIVSCT [P6F]
Second: NWLGRPSKVLSLQDLCCRTIVSCA [T24A]
The protein stability index of the first is lower: 2.17 for the first, 2.5 for the second.

First: SWLGRPSKVLSLQDLCCRTIVSCT [N1S]
Second: NWLGRPSKVLSLQDLCCHTIVSCT [R18H]
The protein stability index of the first is higher: 2.36 for the first, 1.98 for the second.

Compared with NWLGRPSKVLTLQDLCCRTIVSCT [S11T], NWLGRPSKVLSLQDLCCRTWVSCT [I20W] is lower in protein stability index: 2.6 for the first, 2.18 for the second.

First: NWLGRPSKVLSLQDLCCRTIVNCT [S22N]
Second: NWLGRPSKVYSLQDLCCRTIVSCT [L10Y]
The protein stability index of the first is higher: 2.69 for the first, 2.43 for the second.

Going from NWLGRPSKVLSLQDLCWRTIVSCT [C17W] to NWLGRPSKVNSLQDLCCRTIVSCT [L10N], the protein stability index rises from 2.03 to 2.22.

Going from NWLGRPCKVLSLQDLCCRTIVSCT [S7C] to NWLGRPGKVLSLQDLCCRTIVSCT [S7G], the protein stability index falls from 2.21 to 2.15.

Going from NWLGRPSKVLSLQDLCCETIVSCT [R18E] to NMLGRPSKVLSLQDLCCRTIVSCT [W2M], the protein stability index rises from 2.49 to 2.62.

Going from NWLGRPSKVLSLQILCCRTIVSCT [D14I] to NWLGRPSKVLSLQDLCCRTVVSCT [I20V], the protein stability index rises from 1.48 to 2.14.

First: NWLGRPSKVLSLQDLCARTIVSCT [C17A]
Second: NALGRPSKVLSLQDLCCRTIVSCT [W2A]
The protein stability index of the first is lower: 2.66 for the first, 3.05 for the second.

First: EWLGRPSKVLSLQDLCCRTIVSCT [N1E]
Second: NWLGRPSKVLSLWDLCCRTIVSCT [Q13W]
The protein stability index of the first is lower: 2.6 for the first, 2.82 for the second.

Compared with VWLGRPSKVLSLQDLCCRTIVSCT [N1V], NWLGRPSKVLSLQYLCCRTIVSCT [D14Y] is lower in protein stability index: 2.15 for the first, 2.04 for the second.

First: NWLGRPSKVDSLQDLCCRTIVSCT [L10D]
Second: NWLGRPSKVLSSQDLCCRTIVSCT [L12S]
The protein stability index of the first is higher: 2.31 for the first, 1.73 for the second.

Going from NWLGRPSKVLSLQDLCCRDIVSCT [T19D] to NWLGRPSKVLSLQDLCCRTIVECT [S22E], the protein stability index falls from 2.64 to 2.57.

Compared with NWKGRPSKVLSLQDLCCRTIVSCT [L3K], NWLGKPSKVLSLQDLCCRTIVSCT [R5K] is lower in protein stability index: 3.05 for the first, 2.42 for the second.

Going from NWLGRPSKVLSLQDLFCRTIVSCT [C16F] to NWLGRPSKVLSLQDLCCRTMVSCT [I20M], the protein stability index rises from 2.44 to 2.83.

Going from NWLGRPSKPLSLQDLCCRTIVSCT [V9P] to NWLGRPSNVLSLQDLCCRTIVSCT [K8N], the protein stability index rises from 2.09 to 2.52.

First: NWLGRPSKVLSEQDLCCRTIVSCT [L12E]
Second: NWLGLPSKVLSLQDLCCRTIVSCT [R5L]
The protein stability index of the first is lower: 1.8 for the first, 2.06 for the second.

NWLGRPSKVLSLQTLCCRTIVSCT [D14T] and NWLGRPSKVLSLQDLCCLTIVSCT [R18L] are the same in protein stability index: 2.11 for the first, 2.11 for the second.

Compared with NWLGRPSKVLSLQDLCCRTIVSTT [C23T], NWLGRPSKVLSLQDLCCRTKVSCT [I20K] is lower in protein stability index: 2.66 for the first, 2.62 for the second.

First: NWLGRPSKVLSLQDLCCRTIVSKT [C23K]
Second: NWLGRPSKVLSKQDLCCRTIVSCT [L12K]
The protein stability index of the first is higher: 2.92 for the first, 2.15 for the second.

First: NWLGRPSKVLSLQDLCCRPIVSCT [T19P]
Second: NWLGRPSKVLSGQDLCCRTIVSCT [L12G]
The protein stability index of the first is lower: 1.86 for the first, 3.06 for the second.

Going from NWLGRPSKVWSLQDLCCRTIVSCT [L10W] to IWLGRPSKVLSLQDLCCRTIVSCT [N1I], the protein stability index falls from 1.93 to 1.84.

First: NWLGMPSKVLSLQDLCCRTIVSCT [R5M]
Second: NWLGRPSKVLSLQDLCCFTIVSCT [R18F]
The protein stability index of the first is higher: 2.85 for the first, 1.87 for the second.

Going from NWLGRPSKVLSLQDLICRTIVSCT [C16I] to NWLGRPSKVLSLQDLCRRTIVSCT [C17R], the protein stability index rises from 2.17 to 3.23.

Compared with NWLGRPSKDLSLQDLCCRTIVSCT [V9D], NWLGRPSKHLSLQDLCCRTIVSCT [V9H] is lower in protein stability index: 2.28 for the first, 2.21 for the second.

Going from NWLGFPSKVLSLQDLCCRTIVSCT [R5F] to NWNGRPSKVLSLQDLCCRTIVSCT [L3N], the protein stability index rises from 2.27 to 2.46.

First: NWLGVPSKVLSLQDLCCRTIVSCT [R5V]
Second: NWLGRPSKVLSLQDLGCRTIVSCT [C16G]
The protein stability index of the first is higher: 2.52 for the first, 1.44 for the second.

First: NWLGRPSKVLSLQDLCCRTINSCT [V21N]
Second: NWLGRPSKVLSLQDLCCRTIVSCE [T24E]
The protein stability index of the first is higher: 2.8 for the first, 2.58 for the second.

Compared with NWLGRPSKVLSLQDLCCRTIVSFT [C23F], NWLGRPSKVLSLQDLCCRTIASCT [V21A] is higher in protein stability index: 2.33 for the first, 2.64 for the second.

Going from NWLGRPSKVLSLQDLCCRTHVSCT [I20H] to NWLGRPSKVLSLQDLSCRTIVSCT [C16S], the protein stability index falls from 2.48 to 2.31.

First: NWLGRPSKVLSLQDICCRTIVSCT [L15I]
Second: NWLGRPSKVLSLQWLCCRTIVSCT [D14W]
The protein stability index of the first is higher: 2.31 for the first, 1.84 for the second.

Compared with NILGRPSKVLSLQDLCCRTIVSCT [W2I], NWLGRPSKVLSLQDLACRTIVSCT [C16A] is lower in protein stability index: 3.01 for the first, 2.5 for the second.

Compared with NWLGRPSKVFSLQDLCCRTIVSCT [L10F], NWLGRPSCVLSLQDLCCRTIVSCT [K8C] is higher in protein stability index: 2.02 for the first, 2.08 for the second.

First: NCLGRPSKVLSLQDLCCRTIVSCT [W2C]
Second: NWLGRPSKVLSLQDLCCRTIVSCK [T24K]
The protein stability index of the first is lower: 2.71 for the first, 3.2 for the second.

Compared with NWLGRPSKVLSLRDLCCRTIVSCT [Q13R], NWLGRPSKWLSLQDLCCRTIVSCT [V9W] is lower in protein stability index: 3.23 for the first, 2.16 for the second.

Going from NWLGRPSKVLSLQDLYCRTIVSCT [C16Y] to NWLGRPSKVLELQDLCCRTIVSCT [S11E], the protein stability index rises from 1.44 to 2.01.
